From patent US20130225503A1, “TEX14 PEPTIDES AS NOVEL ANTITUMOR AGENTS” (Baylor Licnensing Group, priority 2009, published 2013)

Tests used:
[1] = target: T1, TX-CEP interaction (Homo sapiens, UniProt Q53EZ4); test: Competition assay using the mammalian two-hybrid system, TX-CEP55 interaction; assay type: cell-based; details: pcDNA3 overexpression in HEK293T cells; FIG. 6C, FIG. 7 right
T1 construct: expressed in transfected cells; host or cells: HEK293T
T1 sequence (Q53EZ4 157-236 limits assumed): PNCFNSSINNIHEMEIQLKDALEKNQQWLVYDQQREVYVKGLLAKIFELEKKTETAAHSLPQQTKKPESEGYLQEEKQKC
Text: A modified form of the CheckMate/Flexi vector mammalian two-hybrid system (Promega) was used to study the interactions of proteins in mammalian cells. A pGL4Cherry (mCherry/GAL4UAS/Hygro) vector was engineered from the pGL4.31 (luc2P/GAL4UAS/Hygro) vector by replacing the Luc2P firefly luciferase reporter sequence with the mCherry sequence. The pACT vector expresses a protein of interest, “X,” fused to a transcriptional activation domain (VP16-AD) and the pBIND vector expresses the other protein of interest, “Y,” fused to a DNA-binding domain (GAL4-BD) and Renilla luciferase by separate promoters. […]
Sequences encoding the truncated TEX14, CEP55, ALIX, or TSG101 fragments were cloned into the multiple cloning regions of the pACT and pBIND vectors. Some exemplary constructs used are summarized in FIGS. 6A and B. pACT (protein X), pBIND (protein Y), and pGL4Cherry (mCherry/GAL4UAS/Hygro) were transiently cotransfected into HEK293T cells using Fugene 6/HD transfection reagent, and the cells were examined 44 h later for red fluorescence by using an Axiovert 40 CFL microscope (Carl Zeiss). […] The cells were lysed by using Renilla luciferase assay reagent (Promega), and red fluorescence and Renilla luciferase were measured by using a Polar Star Omega microplate reader (BMG LabTech). […]

[2] = target: T2, CEP55 (C1) hinge region (Mus musculus, UniProt Q8BT07); test: Yeast two-hybrid assay of truncated TEX14 with the CEP55 hinge fragment C1; assay type: binding; details: 80-amino-acid fragment of CEP55 containing the hinge region; FIG. 3A to C
T2 construct: an 80-amino-acid fragment of CEP55 (C1) that contains the hinge region; expressed in transfected cells; host or cells: yeast (Matchmaker Two-Hybrid System 3, Clontech)
T2 sequence (Q8BT07 157-235 limits assumed): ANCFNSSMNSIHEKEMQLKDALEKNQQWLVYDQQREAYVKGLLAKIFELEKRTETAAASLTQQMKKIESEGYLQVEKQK
Protocol: (§1) Protein-protein interactions were evaluated by using the Matchmaker Two-Hybrid System 3 (Clontech) as described previously (10). Mouse full-length TEX14 and MLKP1 were previously subcloned into the Matchmaker GAL4 two-hybrid pGBKT7 and pGADT7 vectors (10). The constructs of full-length mouse and human CEP55, human TEX14, truncated mouse CEP55-C1, and truncated mouse TEX14-T1, T2, T1[…]T2, T3, T4, and T4-C were made by using the Matchmaker GAL4 two-hybrid pGBKT7 bait vector and pGADT7 prey vectors. Some Y2H interactions were examined with an oxygen biosensor assay (Clontech PT3584-1) that measured the fluorescence emitted by an oxygen-sensing platform that detects GAL4.
(§2) To determine the relevance of this GPPX3Y motif as it relates to the interaction of TEX14 with CEP55, we performed yeast two-hybrid assays with mouse TEX14 amino acids 756 to 815 that contain the GPPX3Y motif (FIG. 3A). These 60 amino acids interacted with full-length CEP55 (FIGS. 3B and C). Conversely, an 80-amino-acid fragment of CEP55 (C1) that contains the hinge region interacted with full-length TEX14, the C terminus (T3), and GPPX3Y-containing fragment (T4) but not a shorter sequence that lacked the GPPX3Y motif (T4-C) (FIG. 3A to C). Thus, similar GPPX3Y-containing regions of TEX14, ALIX, and TSG101 interact with the hinge region of CEP55.

[3] = target: T3, full-length mouse CEP55 (mouse, UniProt Q8BT07 1-462); test: yeast two-hybrid
T3 construct: whole, on cells; Yeast two-hybrid fusion with a GAL4 domain (pGBKT7 or pGADT7)
T3 sequence (looked up): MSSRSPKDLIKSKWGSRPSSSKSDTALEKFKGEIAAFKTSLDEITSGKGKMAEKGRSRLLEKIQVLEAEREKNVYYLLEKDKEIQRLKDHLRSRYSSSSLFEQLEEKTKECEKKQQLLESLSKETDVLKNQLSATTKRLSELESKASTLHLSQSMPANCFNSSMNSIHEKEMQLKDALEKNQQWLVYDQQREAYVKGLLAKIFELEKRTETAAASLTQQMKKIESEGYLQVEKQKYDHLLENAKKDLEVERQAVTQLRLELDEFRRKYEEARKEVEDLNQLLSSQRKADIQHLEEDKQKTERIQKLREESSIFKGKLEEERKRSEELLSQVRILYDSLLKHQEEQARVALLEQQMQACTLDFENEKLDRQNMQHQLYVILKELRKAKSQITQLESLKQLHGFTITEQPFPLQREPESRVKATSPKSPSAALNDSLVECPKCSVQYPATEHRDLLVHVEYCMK
Protocol: as §1, §2

[4] = target: the molecule itself; test: yeast two-hybrid, full-length proteins, oxygen biosensor and selection plates
Protocol: (A) Immunoprecipitation (IP) of FLAG-TEX14 and/or MYC-CEP55 from HEK293T cells, followed by Western blot analysis with the antibodies as shown. Immunoprecipitation of protein G (lanes G) is the control. (B) Yeast two-hybrid analyses using vectors encoding full-length mouse TEX14, MKLP1, CEP55, and positive and negative controls. The relative ratios of TEX14-TEX14, TEX14-MKLP1, and TEX14-CEP55 interactions were determined by using an oxygen-biosensor system. (C) Yeast two-hybrid interactions of mouse and human full-length TEX14 and CEP55. (a) Yeast were stably transformed with vectors and plated for yeast two-hybrid analysis as depicted. SV40 T antigen with p53 and SV40 T antigen with lamin C were used as positive and negative controls, respectively. (b) Interactions between the two-hybrid proteins are evident by colony growth and blue color on selection plates.
as §1
Since both CEP55 and TEX14 interact with MKLP1 (10, 22), it was determined whether CEP55 and TEX14 are components of the intercellular bridge as direct or indirect interactors. The inventors first overexpressed full-length FLAG-TEX14 and MYC-CEP55 constructs in HEK293T cells (FIG. 2A). […] Likewise, when the inventors immunoprecipitate with anti-MYC antibody, they immunoprecipitate both MYC-CEP55 and FLAG-TEX14.

ALIX: truncated ALIX region including the GPPX3Y motif, pcDNA3 overexpression vector (ATAPSPVGAGTAAPAPSQTPGSAPPPQAQGPPYPTYPGYPGYCQMPMPMGYNPYAYGQYN)
effect of overexpression on TX-CEP interaction [1]: fails to disrupt

T4: GPPX3Y-containing fragment of mouse TEX14, amino acids 756 to 815 (EVEELEWAQKELDSQCSSLRDASLKFANAKFQPAVGPPSLAYLPPVMQLPGLKQPENGGT; UniProt Q7M6U3 756-815, looked up, fragment)
yeast two-hybrid interaction with CEP55 fragment C1 [2]: interacted

TSG: truncated TSG101 region including the GPPX3Y motif, pcDNA3 overexpression vector (MIVVFGDEPPVFSRPISASYPPYQATGPPNTSYMPGMPGGISPYPSGYPPNPSGYPGCPY)
effect of overexpression on TX-CEP interaction [1]: fails to disrupt

B1: mouse TEX14 amino acids 756 to 815, GPPX3Y-containing fragment (T4) (peptide, UniProt Q7M6U3 756-815, looked up)
chain: EVEELEWAQKELDSQCSSLRDASLKFANAKFQPAVGPPSLAYLPPVMQLPGLKQPENGGT
notes: range 756-815; Yeast two-hybrid GAL4 fusion; also called TEX14-T4
binding result [3]: binds

B2: full-length mouse TEX14 (other, UniProt Q7M6U3 1-1450, looked up)
chain: MSRGAPFPVPCPVLLGTFTDDSLEAQLHEYAKQGNCVKLKKILKKGVCVDAVNTQGQSALFVAALLGHVKLVDVLVDYGSDPNHRCFDGSTPVHAAAFSGNQWILSKLLTAGGDLRLHDEKGRNPQAWALTAGKDRSTQMVEFMQRCTSHMKAIIQGFSYDLLKKIDSPQRLIGSPPWFGSLIQGSPNSSPNRQLKPGIISAQNIYSFGFGKFYLTSGMQLTYPGSLPVIGEKEVVQADDEPTFSFFSGPYMVMTNLVWNRSRVTVKELNLPTRPHCSRLRLADLLIAEQEHSSNLRHPNLLQLMAVCLSRDLEKIRLVYERITVGTLFSVLHERRSQFPVLHMEVIVHLLLQVADALIYLHSRGFIHRSLSSYAVHIVSAGEARLTNLEYLTESQDSGAHRNVTRMPLPTQLYNWAAPEVVLQKAATVKSDIYSFSVIIQEILTDSIPWNGLDGSLVKETIALGNYLEADVRLPEPYYDIVKSGIHAKQKNRTMNLQDIRYILKNDLKEFIGAQKTQPTESPRGQSYEPHPDVNICLGLTSEYQKDPPDLDIKELKEMGSQPHSPTDHSFLTVKPTLAPQTLDSSLSAQKPDNANVPSPPAACLAEEVRSPTASQDSLCSFEINEIYSGCLTLGTDKEEECLGTAASPEGDRPNQGDELPSLEEELDKMERELHCFCEEDKSISEVDTDLLFEDDDWQSDSLGSLNLPEPTREAKGKTSSWSKTDEYVSKCVLNLKISQVMMQQSAEWLRKLEQEVEELEWAQKELDSQCSSLRDASLKFANAKFQPAVGPPSLAYLPPVMQLPGLKQPENGGTWLTLARSPGNEREFQEGHFSKKPEKLSACGWKPFTQVSEESRGDCSELNNQLPTLRGPGKQSTGEQLPSTQEARESLEKNTNQNSRSMASVSSEIYATKSRNNEDNGEAHLKWRLAVKEMAEKAVSGQLLLPPWNPQSSAPFESKVENESTPLPRPPIRGPESTEWQHILEYQRENDEPKGNTKFGKMDNSDCDKNKHSRWTGLQRFTGIRYPFFRNHEQPEQNEASQASCDTSVGTEKFYSTSSPIGDDFERFQDSFAQRQGYVEENFQIREIFEKNAEILTKPQFQAIQCAEDKQDETLGETPKELKEKNTSLTDIQDLSSITYDQDGYFKETSYKTPKLKHAPTSASTPLSPESISSAASHYEDCLENTTFHVKRGSTFCWNGQEAMRTLSAKFTTVRERAKSLESLLASSKSLPAKLTDSKRLCMLSETGSSNVSAAFVTSTHATKRKSLPRELAEATSQQHLDELPPPAQELLDEIEQLKQQQVSSLASHENTARDLSVTNKDKKHLEEQETNSSKDSSFLSSREIQDLEDTERAHSSLDEDLERFLQSPEENTALLDPTKGSTREKKNKDQDVVEQKRKKKESIKPERRESDSSLGTLEEDELKPCFWKRLGWSEPSRIIVLDQSDLSD
notes: whole, on cells; In the yeast two-hybrid assay it stood as a fusion with a GAL4 domain (pGBKT7 bait or pGADT7 prey vector)
binding result [4]: binds
